Test results as given in patent US20180305695.

Target: von Willebrand factor A1 domain (Homo sapiens) (UniProt P04275)
Assay: SPR
Settings: 37 C

In the case of “CGAGGCTCCCCANCTTTCGCCNACANCCGAGGGAGCCTCG [vWF1-DsDsDs-GC]”, the Kd (n = Ds at 3 positions, phosphate buffer 155 mM NaCl, 0.05% NP-40) is reported as 1080 pM.

“CGAGGCTCCCCANCTTTCGCCNACANCCGAGGGAGCCTCGCGCGTAGCG [vWF1-DsDsDs-mhGC]” was tested, and the Kd (n = Ds at 3 positions, phosphate buffer 155 mM NaCl, 0.05% NP-40, koff 0.00159 1/s, printed as GCmh) was 780 pM.

Sequence “CGCGGCCGANGAGCACCGAAGGTCTCAACGNTGGAGGCCGCGCGCGTAGCG [vWF2-DsDsDs-2mhGC]” has a Kd (n = Ds, likely pM (protein 0.078-5 nM)) of 6.13e+07 pM.

“CGTGACCGANGAGCACCTAACNGGTCTCAACGNTGGAGGTCACG [vWF2-DsDsDs]” gave a Kd (n = Ds at 3 positions, likely pM (protein 0.078-5 nM)) of 7.49e+07 pM.

Sequence “TGAGACTCCCCANCTTTCGCCNACANCCGAGGGAGTCTCA [vWF1-DsDsDs]” has a Kd (n = Ds (7-(2-thienyl)-3H-imidazo[4,5-b]pyridin-3-yl) at 3 positions, phosphate buffer 155 mM NaCl, 0.05% NP-40) of 1030 pM.
